Laboratory results: a protein production outcome set (Wang et al. 2014)

Assay: label from the status in PepcDB records

| Sequence | protein production |
| --- | --- |
| MKTEMLHTQEDILKMLDSLLRPAEPFWNEFYENREKDVPFFENVPDENLVSYIQKERVLKGKVLELGCGPGRNAIYLANEGFDVTAVDLSVEGINWAKERALAKGVEIHFICDSIFNLEVQNEFDFVYDSGCLHHIPPHRRINYVDLIKNSLKSGGYFGLTCFAAGDLDERNGSEITDWDVYREWSLQGGLAYSEEKLREIFKELEVIEIRRMKQMKQPNEMFGESFLWTALFKKK | failed |
| MKTEMTNVDISVAVSELQKVINGKLDKAFLVNNQDGKELILKVHIPEIGSREIAIGLGKYKYMTLTEYEREKPRNPPSFVMLLRKHLKNIKITSVAQHNFDRIVIFNFEWNELKYKLIIELFGDGNAILLDSEDKIILPLKIERWSTRKIVPKEIYKFPPQKDLDPKNLDYSLAKKLFIEEFEKEENKDTEVVRIISRTFGLAGVYSEEICLNSEIDKNLKNPKNEEIEKLFEGSKSFFKKVFGELKPKSTLKNGEFVNIDPIDLKIHENLKENEIKHYESFLTALDEYFSRFIMKKEIKQAESKLQKLVKKQERILKSQLDTKDKYEKQSVSNHKRGDLIYANYSLVDEIVSTIKDAREKMDWNGIKNVIKENKTHPILSKIINVNEKNAELTLKLSADYGNGLIEDSVPVDLRKNAFENADIVYQKSKKFKNKVQGVIEALKISEKKLAELKEKEKLDSEVFKEKEEKIKKKERK | failed |
| MKTIRLWDLPTRLFHWLLVIAVVGAVATVKLGAGWMAWHERFGLAVVGLLAFRVVWGLVGSTYARFSQFISGPGAMIRYLRGQWQGAGHNPLGAWSVLLLLGLFGFQAVTGLFANDEIAFNGPLYRLVSSGWSDTLSSWHRLMEWGLYAVVALHVLAVLFYTHVRKDNLIKPMVTGRKQVQSSELKDASGGGWLAMIIALAIAVAVVWAASGGLIPPPPPPPQNLGW | failed |
| MKTITTFENKKVLVLGLARSGEAAARLLAKLGAIVTVNDGKPFDENPTAQSLLEEGIKVVCGSHPLELLDEDFCYMIKNPGIPYNNPMVKKALEKQIPVLTEVELAYLVSESQLIGITGSNGKTTTTTMIAEVLNAGGQRGLLAGNIGFPASEVVQAANDKDTLVMELSSFQLMGVKEFRPHIAVITNLMPTHLDYHGSFEDYVAAKWNIQNQMSSSDFLVLNFNQGISKELAKTTKATIVPFSTTEKVDGAYVQDKQLFYKGENIMSVDDIGVPGSHNVENALATIAVAKLAGISNQVIRETLSNFGGVKHRLQSLGKVHGISFYNDSKSTNILATQKALSGFDNTKVILIAGGLDRGNEFDELIPDITGLKHMVVLGESASRVKRAAQKAGVTYSDALDVRDAVHKAYEVAQQGDVILLSPANASWDMYKNFEVRGDEFIDTFESLRGE | not failed |
| MKTLFLQYPACSTCQKAKKWLIENNIEYTNRLIVDDNPTVEELKAWIPLSGLPVKKFFNTSGVVYKELKLSSKLPTMTEEEQIALLATNGKLVKRPLVVTERFVLVGFKPEEWEKL | not failed |
| MKTLHTDVAIIGAGTAGLAAYRAARAAGKRALLIEGGQYGTTCARVGCMPSKLLIAAAEAAHAAAHGGPFGVHIDGAVRIDGAQVMARVKSERDRFVGFVLEGVENIPAEDKLRGMARFVEDTVLRVDGHTEVRAGSVVIASGSRPAVPPPFLALGDRLVVNDDVFAWDTLPARVAVFGPGVIGLELGQALARLGVQVRVFGVSGSLGGITDPRVRQSARKAFQQEFYLDPDARVLETKRVGDEVEVRYVALDNTERTERFDYALVATGRRPNVDGLDLHNTSLALDARGVPHFDRHTMQAGQAPVFIAGDANADAPLLHEAADEGRIAGENAARYPDVAPGLRRAALGVVFSDPQIALVGTPFARLESGTFVAGEVDFGDQGRSRVMLRNRGMLRVYADIESGRFVGAEMVGPSAEHIGHLLAWAAQQSLTVAQMLEMPFYHPVVEEGLRTALRDAAARLAQARPQRLAA | failed |
| MKTTIAAALQQYFLNDNTACYVLTGDNYPHRIPMRNDEERLNVYNESGEDGLRGYLGTPKEIDFDRINKELSEFKAGKDIIEIKHMGREDGDISYDETDFTGIKVLILEWTHGGSEYLKGVDIPVFLESSPEETKARRIKRGRDENAASPFICRVVELEQEKLDLQGKNARIVVGKDGKVYEQLEHHHHHH | failed |
| MKTTTIFTAALLACLSAPAHAQDLRGSEAGAVMKRESDVRDYYELQQRLKESRESRPEEAVTDRTEPAPQPPADGGQRVFISHIVTDPSEILTEDDLRQVVAPLEGKEVSIRELLAMVDRINDLYRQKGYLTARAVLPPQKVERGTVRIRLVEGRVGRISVGGNRHTRDWFVTSRLHLREGDLVRLDTLENDLFRFNAINDVKLRAEVKPGTATGTTDLILRTQEPDNYRVVAFADNGGGRYIGQERLGLTLQDLSLLGIRDPLTVGGTVADGTLSAHASYSLPLTPVGTRLGVTYDYTSIWITSGPFESLDVDGTSSDLGLTLSQPFALSPALSVTTFAGFNWKKSTTDFGGDTIFENRTRTLTLGGDLLAIDGYGTWFTRHVLTQGFHDFGGDRSFFKYNGDLVRTFILPDDFSALVRASGQVSGNHLLPSSEQFQLGGIATVRGFYEGLLIGDDGYFVSAELTLPLFPADASVYDVRLSPLLRGAIFFDHGGAFPYKGSGESIDHNDFLSSAGFGFILNLAKYLTGRIDFGFPVGERDPDPGTVRVHFSLSSEIL | failed |
| MKTYALVMAGGRGERLWPLSREDRPKPFLPLFEGKTLLEATLERLAPLVPPERTLLAVRRDQEAVARPYADGIRLLLEPLGRDTAGAVLLGVAEALKEGAERLLVLPADHYVGDDEAYREALATMLEAAEEGFVVALGLRPTRPETEYGYIRLGPREGAWYRGEGFVEKPSYAEALEYIRKGYVWNGGVFAFAPATMAELFRRHLPSHHEALERLLAGASLEEVYAGLPKISIDYGVMEKAERVRVVLGRFPWDDVGNWRALERVFSQDPHENVVLGEGRHVALDTFGCVVYADRGVVATLGVSGLVVAKVGDEVLVVPKDWAREVREVVKRLEAQE | not failed |
| MKVAVIGSGISGLGSAYVLANQGVKEVVLYEKEESLGGHAKTVRFDGVDLDLGFMVFNRVTYPNMIEFFENLGVEMEVSDMSFAVSLDNGKGCEWGSRNGVSGLFAQKKNVLNPYFWQMIREIVRFKEDVLNYIEKLEGNPDIDRKETLGEFLNTRGYSELFQQAYLVPICGSIWSCPSDGVLSFSAYSVLSFCCNHHLLQIFGRPQWLTVAGRSQTYVAKVRAELERLGCKIRTSCDVKSVSTSENGCVTVTSGDGSEEVFDRCILAMHAPDALRLLGEEVTFDESRVLGAFQYVYSDIYLHHDIDLMPRNKAAWSAWNFLGSTEKKVCVTYWLNILQNLGENSEPFFVTLNPDETPKKALLKWTTGHPVPSVAASIASQELHQIQGKRNIWFCGAYQGYGFHEDGLKAGMAAARGLLGKETALLNNPRHMVPSLTETGARLFVTRFLGQFISTGSVTILEEGGTMFTFGGKDSTCPLKSILKIHSPQFYWKVMTQADLGLADAYINGDFSFVDKESGLLNLIMILIANRDTKSNLTKKRGWWTPMFLTAGLASAKYFLKHVSRQNTLTQARRNISRHYDLSNELFGLFLDDTMTYSSAVFKSDDEDLRTAQMRKISLLIDKARIEKDHEVLEIGCGWGTLAIEVVRRTGCKYTGITLSIEQLKYAEEKVKEAGLQDRITFELRDYRQLSDAHKYDRIISCEMLEAVGHEFMEMFFSRCEAALAEDGLMVLQFISTPEERYNEYRLSSDFIKEYIFPGACVPSLAKVTSAMSSSSRLCIEHVENIGIHYYQTLRLWRKNFLERQKQIMALGFDDKFVRTWEYYFDYCAAGFKTRTLGDYQLVFSRPGNVAAFADSYRGFPSAYCVS | failed |
| MKVAVLDFGKTNSKLFVFGQDGGILDERRTQPKWTHQDGFSVLDEAALHDWALGAVTEAVENHGVEGVMVSGHGCTFALVDDAALTHPILDYEQEPPAEIAARIDHRIPDFAETFSPRLPLGFNYGRHMLWVQEVDPDAFAAAKSILGYPQYWSWRLGGRPVSEVSYLGCHSHLWAPRSQDFSSLVDAEGWRGQMPAFARAGAVIGERRLGSSSRPIAIHNGVHDSNAALHAYRRQELGPLTVVSTGTWVVVLNPGCPLDVLDRDRDMLVNVDVDGGPVPTIRFMGGREFAAISAGWQGAIPPGAVQQAIDAGIMALPSFAPGGPMPDRPGRLVGRTPYAAERAAAALLYVALMVDLCLDLIQSQDTVIVDGGLNAGGLLAGLLAELRPGQAFLQGATLEGSATGAAALAFESVGRDFVAEAPEPVHAARFAGLAGYRDAWRDRVGGQGTAIKAAGGARLEHHHHHH | failed |
| MKVDREKYGSEKIAKLKILEELKKENPNKKIIAIGNGNNDELLLKNADLGICVIGDEGAWSKTILSSDIVVKDINDALDLLLNENRLKATSRD | failed |
| MKVEFLMTNHNHQHHHSHAHGHVHTDNKKVLMFSFIIISLFMLVEIIGGFLANSLALLSDGFHMLSDAISLGVALIAFIYAEKHATKSKTYGYKRFEILAALFNGVTLFIISIIIIIEAIRRFLEPPEVQSKEMFIISVIGLMVNIIVAILMFKGGDTSHNLNMRGAFLHVLGDLFGSVGAIVASLLIWGFNFTIADPIASILVSLIILKSAYGISKSSLNILMEGTPNDIDLNAVIKAISKDERIQNVHDCHVWTISNDMNALSCHAVVPEYLSVQTCETMLKSIESDLLQLNIQHMTIQLETPEHKHDESTLCSGIHEHSH | failed |
| MKVERLSQPAQHLLTAGVENENSFALDTESVFTSAFLRAARGDARSSSRSDVVSLSEIVLEINQSIDELRVEKPAIKMSPQKYLLRNENNAGEFFFIKKARSEGYLQGRTGDPGAGGVDVSGPSDVRIPNRVTIGPDTVLFHPATGAPLLWFVRDGFDYDFFDGSGFHPRTGAKLAPFTKEEALIFEKRIREKEAEIRREAERVEKDRADREARDFAAKEALARKQEEDRKLREAEAARASEAGQRCDELAANPNDRNKVGQGASFSALKAQAADAVKACDLALKQKPSELRFKYQLARALQFSDRPRSFKLHKELVGQGYAASYDNLGWMYYTDRKDKPQAIVLFRQGIQVGDVDSMVSLAELVDRAEATPANASESKIELCRRAAELGHVGAAQCYQVEVAKQEQAEKDRAQQLEQQKMMIQLMGTIIQSATRR | failed |
| MKVIGINGSPRRAGNTSIMLKTIFEVLEDEGIETELIQVGGTNIKGCRACYACIKNKNSECSTKGDGFNEIFAKMVEADGMILGSPTYFADITPELKALIDRAGFVSRTNGQLFRHKVGASVVSLRRGGGIHAYDSINHLFQICQMFMVGSTYWNLGFGGRDGGEVVNDTEGMENMRDLGHSMAFLLKKLHNLEHHHHHH | not failed |
| MKVIKTAPLIPSEIKVLEKEGNRVKISLAPFEFGYAVTLAHPIRRLLLLSSVGYAPVGLKIEGVHHEFDSLRGVTEDVSLFIMNLKNIRFIAKALVGQDSSLENQSVVVDYSFKGPMELRARDLNSEQIEIVNPEMPLATINEDAQLNFSLIIYKGMGYVPSENTRELMPEGYMPLDGSFTPIKKVVYEIENVLVEGDPNYEKIIFDIETDGQIDPYKAFLSAVKVMSKQLGVFGERPIANTEYSGDYAQRDDAKDLSAKIESMNLSARCFNCLDKIGIKYVGELVLMSEEELKGVKNMGKKSYDEIAEKLNDLGYPVGTELSPEQRESLKKRLEKLEDKGGND | failed |
| MKVKKLVGTLLATALFFSALTATYYYQKYQALLANNVENTAKEALHQLAYTGREYNNIQDQIETISDLLGHSQSLYDYLREPSKANLTILENMWSSVARNQKLYKQIRFLDTSGTEKVRIKYDFKTSIAGPSLILRDKSAREYFKYAQSLDNEQISAWGIELERDKGELVYPLSPSLRILMPISVNDVRQGYLVLNVDIEYLSSLLNYSPVRDFHIELVKHKGFYIASPDESRLYGDIIPERSQFNFSNMYPDIWPRVVSEQAGYSYSGEHLIAFSSIKFVSNEPLHLIIDLSNEQLSKRATRDINDLIQESLFVLSLVLVFTLPITALALHYRRHSVESKLARAALDGMTAVMISDASLRIIMVNQEFENMMGYSTEQVKGSNAHSLILLPEDLEETLNIWNKLGRENVWEGEVRCRTQLNHVFTAIMRIQANLTKSGKISYYITSLVDISERKALEEQLRNLSEKDGLTGLWNRRKFEEQLTHYANIVERYPDTPTTCLALFDIDHFKRINDERGHDEGDKVICSVAETLLREVRTTDFVSRVGGEEFAVIMPHTTVKEAEVVLNRLRVAVQLRSNMTVTVSAGYSDLTADRTRSYKCADIALYESKSAGRNCVSLCHSIDDIA | failed |
